T1: RHPN1, Q8TCX5
T1 sequence (Q8TCX5 508-602, limits assumed, looked up): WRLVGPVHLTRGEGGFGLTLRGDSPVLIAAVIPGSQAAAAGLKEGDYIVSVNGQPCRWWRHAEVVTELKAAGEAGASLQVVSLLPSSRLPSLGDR

T2: LIN7A, O14910
T2 sequence (O14910 103-200, limits assumed, looked up): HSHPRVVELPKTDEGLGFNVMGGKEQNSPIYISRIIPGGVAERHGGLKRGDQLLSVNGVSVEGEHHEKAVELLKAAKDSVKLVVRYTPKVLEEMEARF

T3: DVL3, Q92997
T3 sequence (Q92997 244-331, limits assumed, looked up): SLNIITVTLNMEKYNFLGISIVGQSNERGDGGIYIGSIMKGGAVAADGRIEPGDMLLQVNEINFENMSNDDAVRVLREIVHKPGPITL

T4: GRIP1_2, Q9Y3R0
T4 sequence (Q9Y3R0 145-248, limits assumed, looked up): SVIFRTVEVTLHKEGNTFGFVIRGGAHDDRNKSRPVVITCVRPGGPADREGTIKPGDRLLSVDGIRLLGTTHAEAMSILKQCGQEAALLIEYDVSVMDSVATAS

T5: RADIL, Q96JH8
T5 sequence (Q96JH8 971-1071, limits assumed, looked up): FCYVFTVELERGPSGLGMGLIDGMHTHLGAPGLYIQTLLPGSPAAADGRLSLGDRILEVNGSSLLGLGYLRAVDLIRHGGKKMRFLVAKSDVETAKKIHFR

T6: PDZRN3_1, Q9UPQ7
T6 sequence (Q9UPQ7 244-349, limits assumed, looked up): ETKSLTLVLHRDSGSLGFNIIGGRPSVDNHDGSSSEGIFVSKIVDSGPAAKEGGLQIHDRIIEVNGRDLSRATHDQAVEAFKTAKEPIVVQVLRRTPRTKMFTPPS

T7: RAPGEF6, Q8TEU7
T7 sequence (Q8TEU7 525-625, limits assumed, looked up): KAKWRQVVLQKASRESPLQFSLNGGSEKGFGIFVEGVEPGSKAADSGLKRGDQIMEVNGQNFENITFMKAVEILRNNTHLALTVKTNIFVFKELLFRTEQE

T8: GRIP1_5, Q9Y3R0
T8 sequence (Q9Y3R0 568-668, limits assumed, looked up): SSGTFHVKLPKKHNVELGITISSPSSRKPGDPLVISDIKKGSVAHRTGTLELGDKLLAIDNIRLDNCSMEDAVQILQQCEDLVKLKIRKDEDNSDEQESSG

T9: DFNB31_3, Q9P202
T9 sequence (Q9P202 811-907, limits assumed, looked up): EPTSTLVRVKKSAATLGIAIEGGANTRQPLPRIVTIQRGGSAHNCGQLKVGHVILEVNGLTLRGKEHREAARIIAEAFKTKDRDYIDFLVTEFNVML

T10: GRIP1_3, Q9Y3R0
T10 sequence (Q9Y3R0 247-346, limits assumed, looked up): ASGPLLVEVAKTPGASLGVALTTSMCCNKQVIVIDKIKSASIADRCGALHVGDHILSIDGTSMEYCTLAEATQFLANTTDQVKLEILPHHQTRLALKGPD


Tests used:
Test in all cases: holdup assay
Set-up in all cases: key: below the threshold = too weak to quantify, mostly under pKd 3.1 to 4
Settings in all cases: plain residues with an end cap or a label only (N-terminal biotin on a linker: ado-ado)
RHPN1, Q8TCX5 = molecular target: T1, RHPN1, Q8TCX5
LIN7A, O14910 = molecular target: T2, LIN7A, O14910
DLG4_2, P78352 = molecular target: DLG4_2, P78352
Chain of DLG4_2, P78352 (P78352 155-259): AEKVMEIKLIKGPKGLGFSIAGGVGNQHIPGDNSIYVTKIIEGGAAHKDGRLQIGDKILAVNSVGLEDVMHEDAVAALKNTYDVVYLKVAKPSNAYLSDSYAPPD

DVL3, Q92997 = molecular target: T3, DVL3, Q92997
GRIP1_2, Q9Y3R0 = molecular target: T4, GRIP1_2, Q9Y3R0
RADIL, Q96JH8 = molecular target: T5, RADIL, Q96JH8
MAST2, Q6P0Q8 = molecular target: MAST2, Q6P0Q8
Chain of MAST2, Q6P0Q8 (Q6P0Q8 1099-1202): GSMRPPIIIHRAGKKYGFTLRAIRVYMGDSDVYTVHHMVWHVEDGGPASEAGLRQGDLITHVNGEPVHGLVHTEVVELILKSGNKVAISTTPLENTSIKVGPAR

NHERF4_4, Q86UT5 = molecular target: NHERF4_4, Q86UT5
Chain of NHERF4_4, Q86UT5 (Q86UT5 464-550): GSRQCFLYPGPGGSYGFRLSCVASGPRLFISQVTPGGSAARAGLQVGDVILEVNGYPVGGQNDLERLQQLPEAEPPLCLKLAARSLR

LNX1_1, Q8TBB1 = molecular target: LNX1_1, Q8TBB1
Chain of LNX1_1, Q8TBB1 (Q8TBB1 261-371): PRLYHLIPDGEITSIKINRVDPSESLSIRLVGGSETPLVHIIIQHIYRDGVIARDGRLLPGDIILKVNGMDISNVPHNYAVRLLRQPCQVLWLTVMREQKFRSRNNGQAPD

PDZRN3_1, Q9UPQ7 = molecular target: T6, PDZRN3_1, Q9UPQ7
Inadl_10, Q8NI35 = molecular target: Inadl_10, Q8NI35
Chain of Inadl_10, Q8NI35 (Q8NI35 1673-1763): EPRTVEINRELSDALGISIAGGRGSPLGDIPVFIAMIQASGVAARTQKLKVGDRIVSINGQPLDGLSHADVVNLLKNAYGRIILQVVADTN

MAGI1_1, Q96QZ7 = molecular target: MAGI1_1, Q96QZ7
Chain of MAGI1_1, Q96QZ7 (Q96QZ7 1-106): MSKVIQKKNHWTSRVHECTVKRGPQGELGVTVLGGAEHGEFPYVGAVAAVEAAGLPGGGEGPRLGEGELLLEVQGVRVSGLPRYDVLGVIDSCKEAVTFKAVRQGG

RAPGEF6, Q8TEU7 = molecular target: T7, RAPGEF6, Q8TEU7
GIPC2, Q8TF65 = molecular target: GIPC2, Q8TF65
Chain of GIPC2, Q8TF65 (Q8TF65 112-203): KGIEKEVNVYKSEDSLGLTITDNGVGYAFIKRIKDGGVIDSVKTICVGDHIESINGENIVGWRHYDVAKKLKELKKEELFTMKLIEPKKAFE

DLG4_3, P78352 = molecular target: DLG4_3, P78352
Chain of DLG4_3, P78352 (P78352 306-403): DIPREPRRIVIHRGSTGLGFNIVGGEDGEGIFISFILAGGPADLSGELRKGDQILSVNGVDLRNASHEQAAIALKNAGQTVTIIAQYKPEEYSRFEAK

GRIP1_5, Q9Y3R0 = molecular target: T8, GRIP1_5, Q9Y3R0
PDLIM1, O00151 = molecular target: PDLIM1, O00151
Chain of PDLIM1, O00151 (O00151 1-87): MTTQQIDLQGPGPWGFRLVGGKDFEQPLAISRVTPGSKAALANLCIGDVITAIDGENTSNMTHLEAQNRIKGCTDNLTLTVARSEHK

GORASP1, Q9BQQ3 = molecular target: GORASP1, Q9BQQ3
Chain of GORASP1, Q9BQQ3 (Q9BQQ3 1-208): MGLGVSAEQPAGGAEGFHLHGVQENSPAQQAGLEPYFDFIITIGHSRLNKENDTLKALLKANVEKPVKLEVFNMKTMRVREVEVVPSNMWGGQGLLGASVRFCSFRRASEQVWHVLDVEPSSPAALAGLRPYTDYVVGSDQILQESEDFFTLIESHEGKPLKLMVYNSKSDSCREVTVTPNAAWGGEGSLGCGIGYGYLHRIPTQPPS

DFNB31_3, Q9P202 = molecular target: T9, DFNB31_3, Q9P202
PDZRN4_1, Q6ZMN7 = molecular target: PDZRN4_1, Q6ZMN7
Chain of PDZRN4_1, Q6ZMN7 (Q6ZMN7 213-318): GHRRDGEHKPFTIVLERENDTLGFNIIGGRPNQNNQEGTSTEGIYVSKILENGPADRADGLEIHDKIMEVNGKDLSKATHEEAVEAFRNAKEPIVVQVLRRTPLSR

TJP2_1, Q9UDY2 = molecular target: TJP2_1, Q9UDY2
Chain of TJP2_1, Q9UDY2 (Q9UDY2 24-128): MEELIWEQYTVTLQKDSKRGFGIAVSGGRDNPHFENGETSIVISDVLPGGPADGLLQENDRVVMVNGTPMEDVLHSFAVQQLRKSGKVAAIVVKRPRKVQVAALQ

HTRA1, Q92743 = molecular target: HTRA1, Q92743
Chain of HTRA1, Q92743 (Q92743 360-477): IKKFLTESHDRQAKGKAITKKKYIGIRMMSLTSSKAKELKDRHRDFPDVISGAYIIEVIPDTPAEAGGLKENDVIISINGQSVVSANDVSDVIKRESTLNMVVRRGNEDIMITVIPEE

GRIP1_3, Q9Y3R0 = molecular target: T10, GRIP1_3, Q9Y3R0
LNX1_3, Q8TBB1 = molecular target: LNX1_3, Q8TBB1
Chain of LNX1_3, Q8TBB1 (Q8TBB1 500-596): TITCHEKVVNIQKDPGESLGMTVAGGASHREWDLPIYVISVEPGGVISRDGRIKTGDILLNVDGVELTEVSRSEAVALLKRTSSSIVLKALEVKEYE

GORASP2, Q9H8Y8 = molecular target: GORASP2, Q9H8Y8
NHERF4_2, Q86UT5 = molecular target: NHERF4_2, Q86UT5
Chain of NHERF4_2, Q86UT5 (Q86UT5 220-308): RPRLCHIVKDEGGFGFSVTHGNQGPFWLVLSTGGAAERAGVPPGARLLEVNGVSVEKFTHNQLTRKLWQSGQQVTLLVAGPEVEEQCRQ

SCRIB_1, Q14160 = molecular target: SCRIB_1, Q14160
Chain of SCRIB_1, Q14160 (Q14160 718-814): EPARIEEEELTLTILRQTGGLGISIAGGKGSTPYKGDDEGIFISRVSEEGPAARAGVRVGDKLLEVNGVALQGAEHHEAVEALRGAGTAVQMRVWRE

Binder	pKd (RHPN1, Q8TCX5)	pKd (LIN7A, O14910)	pKd (DLG4_2, P78352)	pKd (DVL3, Q92997)	pKd (GRIP1_2, Q9Y3R0)	pKd (RADIL, Q96JH8)	pKd (MAST2, Q6P0Q8)	pKd (NHERF4_4, Q86UT5)	pKd (LNX1_1, Q8TBB1)	pKd (PDZRN3_1, Q9UPQ7)	pKd (Inadl_10, Q8NI35)	pKd (MAGI1_1, Q96QZ7)	pKd (RAPGEF6, Q8TEU7)	pKd (GIPC2, Q8TF65)	pKd (DLG4_3, P78352)	pKd (GRIP1_5, Q9Y3R0)	pKd (PDLIM1, O00151)	pKd (GORASP1, Q9BQQ3)	pKd (DFNB31_3, Q9P202)	pKd (PDZRN4_1, Q6ZMN7)	further results
YNNCLEILRV [DCAF7, P61962]	below the threshold	below the threshold	below the threshold	3.55	below the threshold	5.14	4.53	below the threshold	below the threshold	below the threshold	below the threshold	below the threshold	below the threshold	below the threshold	below the threshold	below the threshold	below the threshold	4.74	below the threshold	below the threshold	pKd (TJP2_1, Q9UDY2): below the threshold; pKd (HTRA1, Q92743): 5.22; pKd (GRIP1_3, Q9Y3R0): below the threshold; pKd (LNX1_3, Q8TBB1): 3.94; pKd (GORASP2, Q9H8Y8): 5.55; pKd (NHERF4_2, Q86UT5): below the threshold; pKd (SCRIB_1, Q14160): below the threshold
RRLPGKETMA [GRIK2, Q13002]	below the threshold	below the threshold	below the threshold	below the threshold	below the threshold	below the threshold	below the threshold	below the threshold	below the threshold	below the threshold	below the threshold	below the threshold	3.53	below the threshold	below the threshold	below the threshold	below the threshold	below the threshold	below the threshold	below the threshold	pKd (TJP2_1, Q9UDY2): below the threshold; pKd (HTRA1, Q92743): below the threshold; pKd (GRIP1_3, Q9Y3R0): below the threshold; pKd (LNX1_3, Q8TBB1): below the threshold; pKd (GORASP2, Q9H8Y8): 3.55; pKd (NHERF4_2, Q86UT5): below the threshold; pKd (SCRIB_1, Q14160): below the threshold
LGRSTPQSEV [DGKH, Q86XP1]	4.49	below the threshold	3.92	below the threshold	below the threshold	below the threshold	4.85	below the threshold	4.01	below the threshold	below the threshold	below the threshold	below the threshold	below the threshold	below the threshold	below the threshold	below the threshold	below the threshold	below the threshold	below the threshold	pKd (TJP2_1, Q9UDY2): below the threshold; pKd (HTRA1, Q92743): below the threshold; pKd (GRIP1_3, Q9Y3R0): below the threshold; pKd (LNX1_3, Q8TBB1): below the threshold; pKd (GORASP2, Q9H8Y8): below the threshold; pKd (NHERF4_2, Q86UT5): below the threshold; pKd (SCRIB_1, Q14160): 3.77
RRISSLESEV [GRIN2C, Q14957]	4.66	below the threshold	5.33	below the threshold	below the threshold	below the threshold	5.07	below the threshold	4.34	4.24	below the threshold	below the threshold	below the threshold	3.65	3.78	below the threshold	3.75	below the threshold	below the threshold	4.17	pKd (TJP2_1, Q9UDY2): below the threshold; pKd (HTRA1, Q92743): 3.82; pKd (GRIP1_3, Q9Y3R0): below the threshold; pKd (LNX1_3, Q8TBB1): below the threshold; pKd (GORASP2, Q9H8Y8): below the threshold; pKd (NHERF4_2, Q86UT5): below the threshold; pKd (SCRIB_1, Q14160): 4.69
